Seven molecules from US20160354437A1 (NORTHWESTERN UNIVERSITY, published 2016) can be followed below.

B2: GST-POP3 (other)
chain: MESKYKEILLLTSLDNITDEELDRFKCFLPDEFNIATGKLHTLNSTSSQLDLKRWHGVCSEEDRIFQKLNYMLVAKCLREEQETGICGSPSSARSVSQSRLGLSFHGISGNAC
notes: also called recombinant POP3; immobilized GST-POP3; not shown: glutathione S-transferase (GST) tag encoded by pGEX-4T1

The series “co-IP in HEK293 cells” concerns the molecule itself. Briefly: co-IP in HEK293 cells.
In series [1] the target is T1, AIM2 (human, UniProt O14862 1-343).
T1 construct: Endogenous in THP-1 lysates and hMΦ; N-terminally tagged (RFP, myc) where transfected into HEK293; also called endogenous AIM2; RFP-AIM2
T1 sequence (looked up): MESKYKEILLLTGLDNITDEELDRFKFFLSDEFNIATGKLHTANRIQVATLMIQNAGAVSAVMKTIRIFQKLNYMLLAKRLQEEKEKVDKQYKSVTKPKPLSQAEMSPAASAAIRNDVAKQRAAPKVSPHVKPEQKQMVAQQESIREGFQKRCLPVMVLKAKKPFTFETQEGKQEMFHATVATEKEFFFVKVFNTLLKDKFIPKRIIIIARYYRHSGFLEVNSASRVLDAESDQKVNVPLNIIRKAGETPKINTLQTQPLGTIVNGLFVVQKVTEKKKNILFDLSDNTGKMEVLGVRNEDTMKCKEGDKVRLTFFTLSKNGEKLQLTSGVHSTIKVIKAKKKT
Briefly: figure title (pull-down, co-IP, co-localisation).

The next series concerns the target T2, mouse ASC (mouse, UniProt Q9EPB4 1-193).
T2 construct: also called mASC; endogenous ASC in BMDM
T2 sequence (looked up): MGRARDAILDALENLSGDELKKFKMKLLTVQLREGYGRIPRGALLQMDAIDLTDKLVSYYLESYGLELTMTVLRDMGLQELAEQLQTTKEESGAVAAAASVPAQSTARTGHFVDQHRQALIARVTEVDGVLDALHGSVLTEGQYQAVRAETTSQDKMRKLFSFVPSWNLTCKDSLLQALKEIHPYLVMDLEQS
As to the kind of experiment: GST pull-down from BMDM lysates (FIG. 11a). Here is the method:
For GST pull down experiments, POP3 was cloned into pGEX-4T1 and affinity purified as a GST fusion protein from E. coli BL21. Proteins were either prepared by in vitro transcription/translation (TNT Quick Coupled Transcription/Translation, Promega), or TCL were prepared from […] (16 hrs) BMDM or THP-1 cells by lysis (50 mM Hepes pH 7.4, 120 mM NaCl, 10% Glycerol, 2 mM EDTA, 0.5% Triton X-100, supplemented with protease inhibitors) as a source of endogenous proteins, and cleared lysates were incubated with immobilized GST-POP3 or GST control for 16 hrs at 4° C., followed by extensive washing with lysis buffer and analysis as above. For ASC cross-linking, 4×10⁶ BMDM were seeded in 60 mm plates and subjected to cross-linking as described 55. […] Samples were centrifuged at 5,000 rpm for 10 min at 4° C. and the cross-linked pellets were resuspended in 50 μl Laemmli sample buffer and analyzed by immunoblot. […]
The PYDs of human and mouse ALRs are well conserved. […] To delineate the mechanism by which POP3 inhibits ALR inflammasomes in mouse macrophages, ASC oligomerization was analyzed in response to AIM2 inflammasome stimulation with poly(dA:dT) in WT and CD68-POP3 TG BMDM as a readout for AIM2 inflammasome formation (Fernandes-Alnemri et al. Nature.

The next series has as its target T3, GST control (UniProt P08515 1-218 = GST).
T3 construct: Negative control of the GST pull-downs
Briefly: GST pull-down (FIG. 4a). The procedure:
(§1) For GST pull down experiments, POP3 was cloned into pGEX-4T1 and affinity purified as a GST fusion protein from E. coli BL21. Proteins were either prepared by in vitro transcription/translation (TNT Quick Coupled Transcription/Translation, Promega), or TCL were prepared from […] (16 hrs) BMDM or THP-1 cells by lysis (50 mM Hepes pH 7.4, 120 mM NaCl, 10% Glycerol, 2 mM EDTA, 0.5% Triton X-100, supplemented with protease inhibitors) as a source of endogenous proteins, and cleared lysates were incubated with immobilized GST-POP3 or GST control for 16 hrs at 4° C., followed by extensive washing with lysis buffer and analysis as above. For ASC cross-linking, 4×10⁶ BMDM were seeded in 60 mm plates and subjected to cross-linking as described 55. Briefly, cells were transfected with 1 μg/ml poly (dA:dT) for 5 hrs, supernatants were removed, cells rinsed with ice-cold PBS and lysed (20 mM Hepes pH 7.4, 100 mM NaCl, 1% NP-40, 1 mM sodium orthovanadate, supplemented with protease inhibitors) and further lysed by shearing. Cleared lysates were stored for immunoblot analysis and the insoluble pellets were resuspended in 500 μl PBS, supplemented with 2 mM disuccinimydyl suberate (DSS, Pierce) and incubated with rotation at room temperature for 30 min. Samples were centrifuged at 5,000 rpm for 10 min at 4° C. and the cross-linked pellets were resuspended in 50 μl Laemmli sample buffer and analyzed by immunoblot. Human lung tissue was embedded in paraffin, cut into 3 μm sections, mounted, deparaffinized and immunostained with mouse monoclonal CD68 (Dako) and rabbit polyclonal POP3 and peroxidase (HRP)/DAB+ and alkaline phosphatase (AP)/Fast Red enzyme/chromogen combinations (Dako) and specific isotype controls (Dako) and haemotoxylin counterstaining of nuclei.
(§2) GST-POP3, but not GST control, bound to the PYD of AIM2 and IF116.

The series “GST-POP3” has as its target B2. As to the kind of experiment: GST pull-down (FIG. 4a). Here is the method: as §1, §2
The next series has as its target T4, AIM2 from BMDM (mouse, UniProt Q91VJ1 1-354).
T4 construct: also called mAIM2; mouse AIM2
T4 sequence (looked up): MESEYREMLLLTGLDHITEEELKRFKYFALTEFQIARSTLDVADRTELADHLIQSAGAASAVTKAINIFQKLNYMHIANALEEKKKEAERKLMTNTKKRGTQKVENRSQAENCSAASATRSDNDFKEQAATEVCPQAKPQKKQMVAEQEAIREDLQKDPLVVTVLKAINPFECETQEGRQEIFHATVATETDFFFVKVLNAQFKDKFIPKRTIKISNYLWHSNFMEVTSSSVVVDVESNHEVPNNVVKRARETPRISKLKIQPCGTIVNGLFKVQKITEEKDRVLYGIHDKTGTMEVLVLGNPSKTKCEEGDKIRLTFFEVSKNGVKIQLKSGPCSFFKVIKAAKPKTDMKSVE
As to the kind of experiment: GST pull-down from BMDM lysates (FIG. 22c). Here is the method: (§3) POP1 was expressed from pGEX-4T1 and affinity purified as a GST fusion protein from E. coli BL21 (Stehlik et al. Biochem. J 373, 101-113 (2003); herein incorporated by reference in its entirety). Protein lysates were prepared from LPS-treated (16 h) BMDM or THP-1 cells by lysis (50 mM Hepes pH 7.4, 120 mM NaCl, 10% Glycerol, 2 mM EDTA, 0.5% Triton X-100, supplemented with protease inhibitors), and cleared lysates were incubated with immobilized GST-POP1 or GST control for 16 h at 4° C., followed by extensive washing with lysis buffer and analysis as above.

The target in another series is T5, NLRP3 from BMDM (mouse, UniProt Q8R4B8 1-1033).
T5 construct: also called mNLRP3; mouse NLRP3
Briefly: GST pull-down from BMDM lysates (FIG. 22c). Here is the method: as §3

The target in another series is T6, NLRP3 (human, UniProt Q96P20 1-1036).
T6 construct: Endogenous in THP-1 lysates; MYC-tagged where transfected into HEK293; also called MYC-NLRP3; endogenous NLRP3
Briefly: GST pull-down from THP-1 lysates (FIG. 18a). The procedure: as §3
(§4) Recruitment of ASC to upstream sensors is essential for inflammasome activation. POP1 specifically bound to endogenous ASC, but not to the PYD-containing PRRs NLRP3 and AIM2 in LPS-primed THP-1 cells (FIG. 18a), emphasizing the selectivity of these interactions. […] Binding of ASC to NLRP3 induces ASC^PYD nucleation, which provides the oligomeric platform essential for caspase-1 activation (Lu et al. Cell 156, 1193-206 (2014); Cai et al. Cell 156, 1207-22 (2014); herein incorporated by reference in their entireties). […] POP1 binding to the ASC^PYD could also directly prevent ASC^PYD self-polymerization.

Series [2] deals with T1, AIM2. As to the kind of experiment: GST pull-down from THP-1 lysates (FIG. 18a). The procedure:
as §3, §4

T3 sequence (P08515 whole entry): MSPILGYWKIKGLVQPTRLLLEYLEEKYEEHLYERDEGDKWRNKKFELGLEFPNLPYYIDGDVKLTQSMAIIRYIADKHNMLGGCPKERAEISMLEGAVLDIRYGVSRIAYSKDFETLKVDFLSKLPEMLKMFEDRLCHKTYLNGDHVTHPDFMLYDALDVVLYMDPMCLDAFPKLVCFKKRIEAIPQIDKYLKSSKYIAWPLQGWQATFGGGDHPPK
T6 sequence (Q96P20 whole entry): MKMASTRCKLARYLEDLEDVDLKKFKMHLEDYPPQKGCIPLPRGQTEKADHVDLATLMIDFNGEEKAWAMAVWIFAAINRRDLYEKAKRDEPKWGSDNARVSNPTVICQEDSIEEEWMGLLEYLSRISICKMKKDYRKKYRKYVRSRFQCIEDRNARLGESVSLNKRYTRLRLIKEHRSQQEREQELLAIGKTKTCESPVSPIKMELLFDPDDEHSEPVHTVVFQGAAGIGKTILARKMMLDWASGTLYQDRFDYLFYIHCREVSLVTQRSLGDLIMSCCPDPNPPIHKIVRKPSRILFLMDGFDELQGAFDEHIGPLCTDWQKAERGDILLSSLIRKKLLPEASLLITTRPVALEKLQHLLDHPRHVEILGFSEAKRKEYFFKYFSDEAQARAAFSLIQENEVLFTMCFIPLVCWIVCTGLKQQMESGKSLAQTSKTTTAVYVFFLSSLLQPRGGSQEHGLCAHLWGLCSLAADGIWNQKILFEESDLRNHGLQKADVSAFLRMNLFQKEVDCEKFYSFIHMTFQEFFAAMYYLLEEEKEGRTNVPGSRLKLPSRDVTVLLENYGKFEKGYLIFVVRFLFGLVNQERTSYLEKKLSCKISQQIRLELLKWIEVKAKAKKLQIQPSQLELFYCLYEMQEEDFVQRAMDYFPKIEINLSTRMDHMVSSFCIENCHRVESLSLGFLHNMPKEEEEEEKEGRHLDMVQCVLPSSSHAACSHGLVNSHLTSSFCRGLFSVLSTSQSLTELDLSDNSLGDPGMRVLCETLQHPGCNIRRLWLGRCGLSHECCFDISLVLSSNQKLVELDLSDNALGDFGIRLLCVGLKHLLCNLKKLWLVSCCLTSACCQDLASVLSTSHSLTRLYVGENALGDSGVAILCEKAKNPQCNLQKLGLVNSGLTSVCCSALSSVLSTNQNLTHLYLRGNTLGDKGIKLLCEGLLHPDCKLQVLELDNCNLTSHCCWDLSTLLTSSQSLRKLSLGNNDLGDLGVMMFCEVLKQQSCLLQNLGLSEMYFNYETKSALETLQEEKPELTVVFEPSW
T5 sequence (Q8R4B8 whole entry): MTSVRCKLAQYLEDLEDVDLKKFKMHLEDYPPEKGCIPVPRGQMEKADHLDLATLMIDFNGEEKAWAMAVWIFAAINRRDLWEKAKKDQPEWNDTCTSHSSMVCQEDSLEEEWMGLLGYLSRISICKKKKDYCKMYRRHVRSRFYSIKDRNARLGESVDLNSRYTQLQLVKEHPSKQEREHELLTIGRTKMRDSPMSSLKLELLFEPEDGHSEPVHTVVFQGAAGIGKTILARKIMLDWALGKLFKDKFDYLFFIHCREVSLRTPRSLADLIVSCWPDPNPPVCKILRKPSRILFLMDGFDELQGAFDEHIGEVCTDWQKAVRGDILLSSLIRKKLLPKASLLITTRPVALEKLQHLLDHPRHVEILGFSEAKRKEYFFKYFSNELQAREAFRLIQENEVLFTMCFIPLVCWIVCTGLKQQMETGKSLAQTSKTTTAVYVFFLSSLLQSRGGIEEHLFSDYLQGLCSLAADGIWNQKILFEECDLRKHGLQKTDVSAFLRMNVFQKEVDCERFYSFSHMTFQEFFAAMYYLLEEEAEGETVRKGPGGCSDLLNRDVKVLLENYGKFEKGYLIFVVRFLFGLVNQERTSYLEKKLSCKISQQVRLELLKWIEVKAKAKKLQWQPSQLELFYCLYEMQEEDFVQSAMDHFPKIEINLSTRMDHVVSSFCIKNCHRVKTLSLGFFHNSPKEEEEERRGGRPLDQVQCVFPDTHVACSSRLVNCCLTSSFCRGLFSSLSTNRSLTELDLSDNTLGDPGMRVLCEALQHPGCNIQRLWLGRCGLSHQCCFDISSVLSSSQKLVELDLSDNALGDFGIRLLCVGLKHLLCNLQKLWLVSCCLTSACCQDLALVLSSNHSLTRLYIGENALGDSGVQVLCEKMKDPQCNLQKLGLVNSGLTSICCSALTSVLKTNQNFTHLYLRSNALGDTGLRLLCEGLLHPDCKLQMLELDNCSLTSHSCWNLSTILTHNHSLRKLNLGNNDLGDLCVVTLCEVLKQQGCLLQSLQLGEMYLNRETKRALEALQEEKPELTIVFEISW

B1: POP3 (other)
chain: MESKYKEILLLTSLDNITDEELDRFKCFLPDEFNIATGKLHTLNSTSSQLDLKRWHGVCSEEDRIFQKLNYMLVAKCLREEQETGICGSPSSARSVSQSRLGLSFHGISGNAC
notes: POP3 as expressed in cells (HEK293, THP-1, hMΦ); in some microscopy endogenous POP3; also called GFP-POP3; PYRIN domain-only protein 3; not shown: N-terminal tag; GFP-POP3 is named for the co-IP, constructs with myc, HA, Flag, GFP or RFP were made
Regarding B1, the binding result in “co-IP in HEK293 cells” and with AIM2 [1] was “binds” each time.
As to B2, the binding result with mouse ASC is recorded as “no binding”.

B3: PYD of AIM2 (other, human, UniProt O14862 1-87, looked up)
chain: MESKYKEILLLTGLDNITDEELDRFKFFLSDEFNIATGKLHTANRIQVATLMIQNAGAVSAVMKTIRIFQKLNYMLLAKRLQEEKEK
notes: domain: PYD; Made by in vitro transcription/translation for the GST pull-down; GFP- or RFP-tagged in HEK293 for the antibody specificity blot; also called AIM2-PYD
Regarding B3, in the series with GST control, the binding result was “no binding”.

B4: PYD of PYHIN1 (other, human, UniProt Q6K0P9 1-88, looked up)
chain: MANNYKKIVLLKGLEVINDYHFRIVKSLLSNDLKLNPKMKEEYDKIQIADLMEEKFPGDAGLGKLIEFFKEIPTLGDLAETLKREKLK
notes: domain: PYD; also called IFIX-PYD
As for B4, the binding result with GST-POP3 is “no binding”.

B5: PYD of IFI16 (other, human, UniProt Q16666 1-88, looked up)
chain: MGKKYKNIVLLKGLEVINDYHFRMVKSLLSNDLKLNLKMREEYDKIQIADLMEEKFRGDAGLGKLIKIFEDIPTLEDLAETLKKEKLK
notes: domain: PYD; also called IFI16-PYD; IF116 PYD
In the case of B5, in the series with GST control, the binding result is given as “no binding”.

B6: PYD of MNDA (other, human, UniProt P41218 1-88, looked up)
chain: MVNEYKKILLLKGFELMDDYHFTSIKSLLAYDLGLTTKMQEEYNRIKITDLMEKKFQGVACLDKLIELAKDMPSLKNLVNNLRKEKSK
notes: domain: PYD; also called MNDA-PYD
Take B6: in the series with GST-POP3, the binding result is “no binding”.

B7: GST-POP1 (other)
chain: MGTKREAILKVLENLTPEELKKFKMKLGTVPLREGFERIPRGALGQLDIVDLTDKLVASYYEDYAAELVVAVLRDMRMLEEAARLQRAA
notes: also called immobilized GST-POP1; not shown: glutathione S-transferase (GST) tag encoded by pGEX-4T1
Turning to B7, the binding result with AIM2 from BMDM, in the series with NLRP3 from BMDM, in the series with NLRP3 and with AIM2 [2] was “no binding” throughout.
